# Assay results reported in article PMC12394075, “Domain coupling in activation of a family C GPCR” (Nature Chemical Biology, 2024).
# B1: isolated mGluR2 LBD (residues 22–502 with a Cys234Ser mutation) (domain or fragment, UniProt P31421 22-502, looked up)
# chain: AKKVLTLEGDLVLGGLFPVHQKGGPAEECGPVNEHRGIQRLEAMLFALDRINRDPHLLPGVRLGAHILDSCSKDTHALEQALDFVRASLSRGADGSRHICPDGSYATHSDAPTAVTGVIGGSYSDVSIQVANLLRLFQIPQISYASTSAKLSDKSRYDYFARTVPPDFFQAKAMAEILRFFNWTYVSTVASEGDYGETGIEAFELEARARNISVATSEKVGRAMSRAAFEGVVRALLQKPSARVAVLFTRSEDARELLAATQRLNASFTWVASDGWGALESVVAGSERAAEGAITIELASYPISDFASYFQSLDPWNNSRNPWFREFWEERFHCSFRQRDCAAHSLRAVPFEQESKIMFVVNAVYAMAHALHNMHRALCPNTTHLCDAMRPVNGRRLYKDFVLNVKFDAPFRPADTDDEVRFDRFGDGIGRYNIFTYLRAGSGRYRYQKVGYWAEGLTLDTSFIPWASPSAGPLPASRCSE
# notes: Rat is surmised because the same peptides are compared with the full-length rat construct; the simulations used human mGluR2; also called LBD-alone construct; LBD-only construct; source: Expi293 GNTI- cells, secreted into media, purified (anti-FLAG M2 resin, SEC)
# Biological target: the molecule itself
# Test: SEC; Superdex 200 10/300 increase; 100 mM NaCl, 20 mM HEPES, pH 7.5
protein,measurement,value
B1,stoichiometry N,2
